According to article PMC11541587 (Nature Communications, 2024):

Biological target: HA-AMFR (UniProt Q9UKV5 1-643)
Assay: co-IP

Sequence of HA-AMFR (Q9UKV5 whole entry): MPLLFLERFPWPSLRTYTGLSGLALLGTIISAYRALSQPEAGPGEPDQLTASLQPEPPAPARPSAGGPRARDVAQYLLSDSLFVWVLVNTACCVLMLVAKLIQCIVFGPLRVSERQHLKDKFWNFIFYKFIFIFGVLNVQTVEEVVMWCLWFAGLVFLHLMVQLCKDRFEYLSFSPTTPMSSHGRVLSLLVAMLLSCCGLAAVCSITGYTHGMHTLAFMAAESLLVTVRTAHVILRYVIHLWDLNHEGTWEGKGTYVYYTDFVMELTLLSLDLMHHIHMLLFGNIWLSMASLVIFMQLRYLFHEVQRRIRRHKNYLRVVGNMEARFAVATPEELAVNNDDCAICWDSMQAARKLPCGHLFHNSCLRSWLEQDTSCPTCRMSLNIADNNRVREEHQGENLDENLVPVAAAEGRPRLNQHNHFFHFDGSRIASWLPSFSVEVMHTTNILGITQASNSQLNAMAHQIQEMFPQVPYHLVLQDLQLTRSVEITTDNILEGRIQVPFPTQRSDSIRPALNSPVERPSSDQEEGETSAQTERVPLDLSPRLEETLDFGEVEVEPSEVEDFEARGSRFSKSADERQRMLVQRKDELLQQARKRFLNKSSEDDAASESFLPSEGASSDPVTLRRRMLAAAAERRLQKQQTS

- binding result: binds
B1: FAM134B (construct and tag not told for these supplementary panels) (natural protein)
chain: MASPAPPEHAEEGCPAPAAEEQAPPSPPPPQASPAERQQQEEEAQEAGAAEGAGLQVEEAAGRAAAAVTWLLGEPVLWLGCRADELLSWKRPLRSLLGFVAANLLFWFLALTPWRVYHLISVMILGRVIMQIIKDMVLSRTRGAQLWRSLSESWEVINSKPDERPRLSHCIAESWMNFSIFLQEMSLFKQQSPGKFCLLVCSVCTFFTILGSYIPGVILSYLLLLCAFLCPLFKCNDIGQKIYSKIKSVLLKLDFGIGEYINQKKRERSEADKEKSHKDDSELDFSALCPKISLTVAAKELSVSDTDVSEVSWTDNGTFNLSEGYTPQTDTSDDLDRPSEEVFSRDLSDFPSLENGMGTNDEDELSLGLPTELKRKKEQLDSGHRPSKETQSAAGLTLPLNSDQTFHLMSNLAGDVITAAVTAAIKDQLEGVQQALSQAAPIPEEDTDTEEGDDFELLDQSELDQIESELGLTQDQEAEAQQNKKSSGFLSNLLGGH
